Substrate: CC(NCCCC[C@H](N)C(=O)O)C(=O)O
Test: purified protein
Details: 50 mM Tris pH 8.0, 5 μM FAD, 25 μM enzyme, 37 °C, CEL 1-13 mM

B1: C-MnmC (Escherichia coli K-12) (protein)
chain: PCSAPWFNRTGSSKREAAIIGGGIASALLSLALLRRGWQVTLYCADEAPALGASGNRQGALYPLLSKHDEALNRFFSNAFTFARRFYDQLPVKFDHDWCGVTQLGWDEKSQHKIAQMLSMDLPAELAVAVEANAVEQITGVATNCSGITYPQGGWLCPAELTRNVLELAQQQGLQIYYQYQLQNLSRKDDCWLLNFAGDQQATHSVVVLANGHQISRFSQTSTLPVYSVAGQVSHIPTTPELAELKQVLCYDGYLTPQNPANQHHCIGASYHRGSEDTAYSEDDQQQNRQRLIDCFPQAQWAKEVDVSDKEARCGVRCATRDHLPMVGNVPDYEATLVEYASLAEQKDEAVSAPVFDDLFMFAALGSRGLCSAPLCAEILAAQMSDEPIPMDASTLAALNPNRLWVRKLLKGKAVKAG
Q: With B1 as the protein, how does the Km read?
A: 4.3 ± 0.6 mM

Q: And the kcat?
A: 0.003 ± 0.00015 s⁻¹

Q: And the kcat/Km?
A: 0.7 ± 0.1 M⁻¹ s⁻¹

B2: MnmC (Escherichia coli K-12) (protein)
chain: MKHYSIQPANLEFNAEGTPVSRDFDDVYFSNDNGLEETRYVFLGGNQLEVRFPEHPHPLFVVAESGFGTGLNFLTLWQAFDQFREAHPQAQLQRLHFISFEKFPLTRADLALAHQHWPELAPWAEQLQAQWPMPLPGCHRLLLDEGRVTLDLWFGDINELTSQLDDSLNQKVDAWFLDGFAPAKNPDMWTQNLFNAMARLARPGGTLATFTSAGFVRRGLQDAGFTMQKRKGFGRKREMLCGVMEQTLPLPCSAPWFNRTGSSKREAAIIGGGIASALLSLALLRRGWQVTLYCADEAPALGASGNRQGALYPLLSKHDEALNRFFSNAFTFARRFYDQLPVKFDHDWCGVTQLGWDEKSQHKIAQMLSMDLPAELAVAVEANAVEQITGVATNCSGITYPQGGWLCPAELTRNVLELAQQQGLQIYYQYQLQNLSRKDDCWLLNFAGDQQATHSVVVLANGHQISRFSQTSTLPVYSVAGQVSHIPTTPELAELKQVLCYDGYLTPQNPANQHHCIGASYHRGSEDTAYSEDDQQQNRQRLIDCFPQAQWAKEVDVSDKEARCGVRCATRDHLPMVGNVPDYEATLVEYASLAEQKDEAVSAPVFDDLFMFAALGSRGLCSAPLCAEILAAQMSDEPIPMDASTLAALNPNRLWVRKLLKGKAVKAG
Q: B2 was tested. Which Km did it give?
A: 5.2 ± 1.3 mM

Q: What about the kcat of the same protein?
A: 0.000667 ± 6.67e-05 s⁻¹

Q: What about the kcat/Km of the same protein?
A: 0.133 ± 0.0167 M⁻¹ s⁻¹

Reference: paper PMC6768434
